Data published in patent publication US20260098059A1 (ENDOMET BIOSCIENCES, published 2026).
Where “and” joins values, the source holds several entries; their conditions need not be identical. Equal entries are not always repeated. Where no end group is shown, it is not given here.

T1: β-catenin (UniProt P35222 134-665, limits assumed, biotinylated in the SPR and plate assays)
T1 sequence (looked up): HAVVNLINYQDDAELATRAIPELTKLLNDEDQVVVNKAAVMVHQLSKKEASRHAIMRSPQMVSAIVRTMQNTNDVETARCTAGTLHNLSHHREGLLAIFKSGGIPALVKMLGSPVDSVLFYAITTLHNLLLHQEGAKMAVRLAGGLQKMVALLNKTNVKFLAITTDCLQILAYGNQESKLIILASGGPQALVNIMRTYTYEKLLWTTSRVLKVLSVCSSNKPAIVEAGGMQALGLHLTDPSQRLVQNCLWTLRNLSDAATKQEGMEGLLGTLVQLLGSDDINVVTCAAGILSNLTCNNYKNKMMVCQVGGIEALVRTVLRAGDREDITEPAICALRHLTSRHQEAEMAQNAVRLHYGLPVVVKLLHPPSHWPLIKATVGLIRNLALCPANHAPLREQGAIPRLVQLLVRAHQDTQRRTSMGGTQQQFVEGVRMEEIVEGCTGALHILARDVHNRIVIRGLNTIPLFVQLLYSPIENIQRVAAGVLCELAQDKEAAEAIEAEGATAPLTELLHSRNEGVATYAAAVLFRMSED

B1: SEQ ID NO: 167 (peptide)
peptide: KMWFLICAWD
HELM: PEPTIDE1{K.M.W.F.L.I.C.A.W.D}$PEPTIDE1,PEPTIDE1,1:R3-10:R3$$$V2.0
SMILES: CC[C@H](C)[C@@H]1NC(=O)[C@H](CC(C)C)NC(=O)[C@H](Cc2ccccc2)NC(=O)[C@H](Cc2c[nH]c3ccccc23)NC(=O)[C@H](CCSC)NC(=O)[C@@H](N)CCCCNC(=O)C[C@@H](C(=O)O)NC(=O)[C@H](Cc2c[nH]c3ccccc23)NC(=O)[C@H](C)NC(=O)[C@H](CS)NC1=O
B2: SEQ ID NO: 170 (peptide)
peptide: KMWFLICFWD
HELM: PEPTIDE1{K.M.W.F.L.I.C.F.W.D}$PEPTIDE1,PEPTIDE1,1:R3-10:R3$$$V2.0
SMILES: CC[C@H](C)[C@@H]1NC(=O)[C@H](CC(C)C)NC(=O)[C@H](Cc2ccccc2)NC(=O)[C@H](Cc2c[nH]c3ccccc23)NC(=O)[C@H](CCSC)NC(=O)[C@@H](N)CCCCNC(=O)C[C@@H](C(=O)O)NC(=O)[C@H](Cc2c[nH]c3ccccc23)NC(=O)[C@H](Cc2ccccc2)NC(=O)[C@H](CS)NC1=O
B3: SEQ ID NO: 32 (peptide)
peptide: KSRMWYLISFW
HELM: PEPTIDE1{K.S.R.M.W.Y.L.I.S.F.W}$PEPTIDE1,PEPTIDE1,1:R3-11:R2$$$V2.0
SMILES: CC[C@H](C)[C@@H]1NC(=O)[C@H](CC(C)C)NC(=O)[C@H](Cc2ccc(O)cc2)NC(=O)[C@H](Cc2c[nH]c3ccccc23)NC(=O)[C@H](CCSC)NC(=O)[C@H](CCCNC(=N)N)NC(=O)[C@H](CO)NC(=O)[C@@H](N)CCCCNC(=O)[C@H](Cc2c[nH]c3ccccc23)NC(=O)[C@H](Cc2ccccc2)NC(=O)[C@H](CO)NC1=O
B4: SEQ ID NO: 106 (peptide)
peptide: MSRMWFLISSW
HELM: PEPTIDE1{M.S.R.M.W.F.L.I.S.[O=C([C@H](COCc1ccccc1)N[*:1])[*:2]].W}$$$$V2.0
SMILES: CC[C@H](C)[C@H](NC(=O)[C@H](CC(C)C)NC(=O)[C@H](Cc1ccccc1)NC(=O)[C@H](Cc1c[nH]c2ccccc12)NC(=O)[C@H](CCSC)NC(=O)[C@H](CCCNC(=N)N)NC(=O)[C@H](CO)NC(=O)[C@@H](N)CCSC)C(=O)N[C@@H](CO)C(=O)N[C@@H](COCc1ccccc1)C(=O)N[C@@H](Cc1c[nH]c2ccccc12)C(=O)O
B5: SEQ ID NO: 105 (peptide)
peptide: MSRMWFLISSW
HELM: PEPTIDE1{M.S.R.M.W.F.L.I.S.[CCOC[C@H](N[*:1])C(=O)[*:2]].W}$$$$V2.0
SMILES: CCOC[C@H](NC(=O)[C@H](CO)NC(=O)[C@@H](NC(=O)[C@H](CC(C)C)NC(=O)[C@H](Cc1ccccc1)NC(=O)[C@H](Cc1c[nH]c2ccccc12)NC(=O)[C@H](CCSC)NC(=O)[C@H](CCCNC(=N)N)NC(=O)[C@H](CO)NC(=O)[C@@H](N)CCSC)[C@@H](C)CC)C(=O)N[C@@H](Cc1c[nH]c2ccccc12)C(=O)O
B6: SEQ ID NO: 101 (peptide)
peptide: WFLISSW
HELM: PEPTIDE1{W.F.L.I.S.[O=C([C@H](COCc1ccccc1)N[*:1])[*:2]].W}$$$$V2.0
SMILES: CC[C@H](C)[C@H](NC(=O)[C@H](CC(C)C)NC(=O)[C@H](Cc1ccccc1)NC(=O)[C@@H](N)Cc1c[nH]c2ccccc12)C(=O)N[C@@H](CO)C(=O)N[C@@H](COCc1ccccc1)C(=O)N[C@@H](Cc1c[nH]c2ccccc12)C(=O)O
B7: SEQ ID NO: 104 (peptide)
peptide: WFLISSW
HELM: PEPTIDE1{W.F.L.I.S.[CCOC[C@H](N[*:1])C(=O)[*:2]].W}$$$$V2.0
SMILES: CCOC[C@H](NC(=O)[C@H](CO)NC(=O)[C@@H](NC(=O)[C@H](CC(C)C)NC(=O)[C@H](Cc1ccccc1)NC(=O)[C@@H](N)Cc1c[nH]c2ccccc12)[C@@H](C)CC)C(=O)N[C@@H](Cc1c[nH]c2ccccc12)C(=O)O

Molecular target: T1, β-catenin
Experiment: cell-based or functional assay

Row | Wnt Reporter EC50 | Binder
1 | > 7.5 µM and ≤ 15 µM | MWFLISFW-NH2 [SEQ ID NO: 107]
2 | > 7.5 µM and ≤ 15 µM | H-WFLISFW-OH [SEQ ID NO: 110]
3 | > 30 µM | H-KMWILICFWG-OH [SEQ ID NO: 113]
4 | > 7.5 µM and ≤ 15 µM | B1
5 | > 7.5 µM and ≤ 15 µM | H-RMWILISFWG-OH [SEQ ID NO: 124]
6 | > 15 µM and ≤ 22.5 µM | H-RMWILICFWG-OH [SEQ ID NO: 115]
7 | ≤ 7.5 µM | H-HMWILICFWG-OH [SEQ ID NO: 114]
8 | > 15 µM and ≤ 22.5 µM | B2
9 | > 30 µM | MSRMWFLISFW-NH2 [SEQ ID NO: 72]
10 | > 30 µM | B3
11 | > 22.5 µM and ≤ 30 µM | H-MSRMWFLISSW-OH [SEQ ID NO: 99]
12 | > 30 µM | MTRMWFLISFW-NH2 [SEQ ID NO: 73]
13 | > 15 µM and ≤ 22.5 µM | B4
14 | > 30 µM | KSRMWFLISFW-NH2 [SEQ ID NO: 83]
15 | > 30 µM | MSRTWFLISFW-NH2 [SEQ ID NO: 76]
16 | > 30 µM | MSRMWWLISFW-NH2 [SEQ ID NO: 80]
17 | > 30 µM | RSRMWFLISFW-NH2 [SEQ ID NO: 84]
18 | > 30 µM | KSRWWFLISFW-NH2 [SEQ ID NO: 95]
19 | > 30 µM | WSRKWFLISFW-NH2 [SEQ ID NO: 90]
20 | > 30 µM | MSRRWFLISFW-NH2 [SEQ ID NO: 75]
21 | > 30 µM | MSRKWFLISFW-NH2 [SEQ ID NO: 87]
22 | > 30 µM | MSRHWFLISFW-NH2 [SEQ ID NO: 88]

Row | Wnt Reporter EC50 | Binder
23 | > 15 µM and ≤ 22.5 µM | WSRWWFLISFW-NH2 [SEQ ID NO: 92]
24 | > 30 µM | DSRMWFLISFW-NH2 [SEQ ID NO: 85]
25 | > 30 µM | FSRMWFLISFW-NH2 [SEQ ID NO: 81]
26 | > 30 µM | HSRMWFLISFW-NH2 [SEQ ID NO: 89]
27 | > 30 µM | MSRWWFLISFW-NH2 [SEQ ID NO: 78]
28 | > 30 µM | ESRMWFLISFW-NH2 [SEQ ID NO: 86]
29 | > 30 µM | KSRKWFLISFW-NH2 [SEQ ID NO: 93]
30 | > 30 µM | WSRMWFLISFW-NH2 [SEQ ID NO: 79]
31 | > 30 µM | MSRFWFLISFW-NH2 [SEQ ID NO: 77]
32 | > 30 µM | YSRMWFLISFW-NH2 [SEQ ID NO: 82]
33 | > 30 µM | MQRMWFLISFW-NH2 [SEQ ID NO: 74]
34 | > 30 µM | KSRHWFLISFW-NH2 [SEQ ID NO: 94]
35 | > 30 µM | WSRHWFLISFW-NH2 [SEQ ID NO: 91]
36 | > 7.5 µM and ≤ 15 µM | B5
37 | > 30 µM | WFLISFW-NH2 [SEQ ID NO: 98]
38 | > 7.5 µM and ≤ 15 µM | H-WFLITTW-OH [SEQ ID NO: 100]
39 | > 7.5 µM and ≤ 15 µM | H-WFLISYW-OH [SEQ ID NO: 109]
40 | > 7.5 µM and ≤ 15 µM | B6
41 | > 15 µM and ≤ 22.5 µM | H-WFLISTW-OH [SEQ ID NO: 103]
42 | > 22.5 µM and ≤ 30 µM | H-WFLISSW-OH [SEQ ID NO: 97]
43 | > 7.5 µM and ≤ 15 µM | B7
